The results in this text go back to patent US20230265187A1 (published 2023).

The target in experiment [1] is T1, human TIGIT on Jurkat cells (TIGIT/NFAT reporter Jurkat cells, BPS Bioscience #60538); Promega TIGIT Effector … (human, UniProt Q495A1 22-244).
T1 sequence (looked up): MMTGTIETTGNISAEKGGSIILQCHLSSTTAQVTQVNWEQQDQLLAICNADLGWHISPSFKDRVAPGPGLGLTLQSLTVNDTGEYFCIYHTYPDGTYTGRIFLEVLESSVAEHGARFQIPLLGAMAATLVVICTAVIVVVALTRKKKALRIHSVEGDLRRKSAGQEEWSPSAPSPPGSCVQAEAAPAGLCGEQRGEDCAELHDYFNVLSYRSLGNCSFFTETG
Put plainly: cell-based or functional assay.

The target in experiment [2] is T2, his-tagged human TIGIT (Acro Biosystems #TIT-H52H3) (human, UniProt Q495A1 22-141).
T2 construct: Bought protein; also called His-tagged-TIGIT (human); not shown: his tag
T2 sequence (looked up): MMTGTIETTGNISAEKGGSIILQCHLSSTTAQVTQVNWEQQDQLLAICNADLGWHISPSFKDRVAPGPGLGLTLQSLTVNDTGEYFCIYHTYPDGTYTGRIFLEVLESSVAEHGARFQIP
Put plainly: ELISA, coated His-TIGIT, 1 ug/ml.

For experiment [3], the target named is T3, his-tagged murine TIGIT (Acro Biosystems #TIT-M52E6) (murine, UniProt P86176 29-148, limits assumed).
T3 construct: Bought protein; also called mouse his-tagged TIGIT; not shown: his tag
T3 sequence (looked up): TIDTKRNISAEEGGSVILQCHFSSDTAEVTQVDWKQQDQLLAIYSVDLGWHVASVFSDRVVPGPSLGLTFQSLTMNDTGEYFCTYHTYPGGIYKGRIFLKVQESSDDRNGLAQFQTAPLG
Put plainly: ELISA, coated His-TIGIT, 1 ug/ml. (In general: ELISA stands for enzyme-linked immunosorbent assay.)

The target of experiment [4] is T4, His-tagged cynomolgus monkey TIGIT (Acro Biosystems #TIT-05223) (cynomolgus monkey, UniProt A0A7N9I9V4 89-209).
T4 construct: Bought protein; also called cyno TIGIT; cynomolgus TIGIT; not shown: His tag
Put plainly: ELISA, coated His-TIGIT, 1 ug/ml.

For experiment [5], the target named is T1, human TIGIT on Jurkat cells (TIGIT/NFAT …). Put plainly: flow cytometry, TIGIT/NFAT Jurkat cells, 10 ug/ml. On the technique in general: Flow cytometry measures light scatter and fluorescence of single cells or particles in a stream.
In experiment [6] the target is T2, his-tagged human TIGIT (Acro Biosystems …). Put plainly: SPR (Carterra LSA), scFv-Fc captured, His-TIGIT analyte. The method, then:
(§1) Binding affinities of anti-TIGIT antibodies to human, cyno, and murine TIGIT were measured by Surface Plasmon Resonance (SPR) on a Carterra LSA instrument. Goat anti-human Fc antibody was amine coupled to a HC30M chip. ScFv-Fc supernatants were diluted 30-fold with HBSTE and were captured by the anti-human Fc coupled HC30M chip. A 1:2 dilution series of his-tagged human TIGIT, starting at 400 nM, was injected onto the chip for binding. A dilution series was also carried out for cyno TIGIT and murine TIGIT. Data were analyzed using the Carterra™ Kinetics software.

Experiment [7] deals with T3, his-tagged murine TIGIT (Acro …). The experiment is described as above. The protocol:
as §1

Experiment [8] addresses T4, His-tagged cynomolgus monkey TIGIT …. The experiment is described as above. The method, then: as §1

Positions count from the first letter of the chain named.

T4 sequence (A0A7N9I9V4 entry or part of it): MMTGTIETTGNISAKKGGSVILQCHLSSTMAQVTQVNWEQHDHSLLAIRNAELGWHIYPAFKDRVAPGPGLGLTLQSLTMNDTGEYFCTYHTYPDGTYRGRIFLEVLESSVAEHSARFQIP

B1: 43586p2.D05 (scFv, V domains shown)
VH: EVQLLESGGGLVQPGGSLRLSCAASGFTFDDYVMSWVRQAPGKGLEWVSLINWNGDKTYYADSVKGRFTISRDNSKNTLYLQMNSLRAEDTAVYYCARHWIVFQYGLDIWGQGTTVTVSS
VL: QSVLTQPLSASGTPGQRVTISCSGVSSNIEIKYVSWYQQLPGTAPKLLIYNSHQRPSGVPDRFSGSKSGTSASLAISGLQSEDEADYYCTSWDDRLKSWVFGGGTKLTVL
For B1, in experiment [1], the “max. signal (% of 22G2)” value was 118 % of 22G2. Besides, the entries for the “Elisa OD450” value in experiment [2], in experiment [3] and in experiment [4] were 1.92 OD450, 1.67 OD450 and 1.73 OD450, respectively. This molecule returned an MFI in experiment [5] of 9960 MFI. In addition, the values for the Kd in experiment [6], in experiment [7] and in experiment [8] were 0.214 nM, 5.46 nM and 1.55 nM, respectively.

B2: 43586p2.F11 (scFv, V domains shown)
VH: B1 VH with S7L, G10S, I109V
VL: B1 VL with R17K
As for B2, the “max. signal (% of 22G2)” value in experiment [1] is 104 % of 22G2. The “Elisa OD450” value in experiment [2] was determined as 1.98 OD450; in experiment [3] it was 1.93 OD450; in experiment [4], 1.92 OD450. In addition, the MFI in experiment [5] worked out at 9200 MFI. For the same molecule, the Kd turned out to be 0.307 nM in experiment [6], 6.23 nM in experiment [7] and 2.09 nM in experiment [8].

B3: 43586p2.E08 (scFv, V domains shown)
VH: B1 VH with G10D, G66D, I109V
VL: B1 VL
Regarding B3, in experiment [1], the “max. signal (% of 22G2)” value was 117 % of 22G2. Moreover, the “Elisa OD450” value in experiment [2] turned out to be 1.46 OD450; in experiment [3], 2.03 OD450; in experiment [4], 1.87 OD450. Further, in experiment [5], the MFI came to 11300 MFI. For the same molecule, the Kd in experiment [6] amounted to 0.252 nM; in experiment [7] it was 5.79 nM; in experiment [8], 1.83 nM.

B4: 43586p2.F02 (scFv, V domains shown)
VH: B1 VH with F103L, I109V
VL: B1 VL
For B4, the “max. signal (% of 22G2)” value in experiment [1] was 92 % of 22G2. Besides, the “Elisa OD450” value is 1.85 OD450 in experiment [2], 1.9 OD450 in experiment [3] and 1.77 OD450 in experiment [4]. Further, the MFI in experiment [5] was 8960 MFI. Moreover, the results for the Kd in experiment [6], in experiment [7] and in experiment [8] were 1.81 nM, 96 nM and 14.4 nM, respectively.

B5: 43586p1.2.C5 (scFv, V domains shown)
VH: EVQLLESGGGLVQPGGSLRLSCAASGFTVSDHYMSWVRQAPGKGLEWVSTTSSTSWKNYTYYADSVKGRFSISRDNSENTLYLQMNGLRAEDTAVYYCAKGSYGMDVWGQGTTVTVSS
VL: QSVLTQPPSASGTPGQRVTISCSGSNFNIGTKYLYWYQQLPGTAPKLLIYLDSQRPSGVPDRFSTSKPGTSASLAISGLQSEDEADYYCALWDDHLHGWVFGGGTKLTVL
Turning to B5, the “max. signal (% of 22G2)” value in experiment [1] is 91 % of 22G2. Further, the “Elisa OD450” value in experiment [2] was 2.03 OD450; in experiment [3], 2.03 OD450; in experiment [4], 0.685 OD450. Further, the MFI in experiment [5] amounted to 10700 MFI. The Kd worked out at 1.04 nM in experiment [6], 3.2 nM in experiment [7] and 411 nM in experiment [8].

B6: 43586p1.2.E6 (scFv, V domains shown)
VH: B5 VH
VL: B5 VL with P68S
On to B6, for which the “max. signal (% of 22G2)” value in experiment [1] was 97 % of 22G2. For the same molecule, the “Elisa OD450” value amounted to 1.82 OD450 in experiment [2], 2.01 OD450 in experiment [3] and 0.776 OD450 in experiment [4]. This molecule also had an MFI in experiment [5] of 10500 MFI. Also, the values for the Kd in experiment [6], in experiment [7] and in experiment [8] were 1.56 nM, 3.07 nM and 564 nM, respectively.

B7: 43586p2.D01 (scFv, V domains shown)
VH: B5 VH with D31S, H32N, Y33W, T54S, K57N, S71T, E78K, G87S
VL: B5 VL with F27S, T31A, D52N, S53D, T65G, P68S, L91F, H97K
Turning to B7, the “max. signal (% of 22G2)” value in experiment [1] was 103 % of 22G2. In addition, the “Elisa OD450” value in experiment [2] is 1.95 OD450; in experiment [3] it was 1.66 OD450; in experiment [4], 1.61 OD450. In addition, the MFI in experiment [5] was found to be 9990 MFI. Also, the results for the Kd in experiment [6], in experiment [7] and in experiment [8] were 1.04 nM, 0.496 nM and 29.1 nM, respectively.

B8: 43586p2.D06 (scFv, V domains shown)
VH: EVQLLESGGGLVQPGGSLRLSCAASGFTFSSYWMNWVRQAPGKGLEWVSGIYSGGTTYYADSVKGRFTISRDNSKNTLYLQMNSLRAEDTAVYYCTRENWKENNAMDVWGQGTTVTVSS
VL: QSVLTQPPSASGTPGQRVTISCSGVTSNIASYHVYWYQQLPGTAPKLLIYLNSQRPSGVPDRFSASKSGTSASLAISGLQSEDEADYYCATWDGSLNGWVFGGGTKLTVL
Turning to B8, the “Elisa OD450” value was 1.77 OD450 in experiment [2], 1.36 OD450 in experiment [3] and 1.66 OD450 in experiment [4]. Besides, the MFI in experiment [5] turned out to be 15400 MFI. In addition, the Kd was determined as 0.344 nM in experiment [6], 3.09 nM in experiment [7] and 1.06 nM in experiment [8].

B9: 43586p2.G02 (scFv, V domains shown)
VH: B8 VH
VL: B8 VL with L96Q
In the case of B9, the entries for the “Elisa OD450” value in experiment [2], in experiment [3] and in experiment [4] were 1.88 OD450, 1.7 OD450 and 1.5 OD450, respectively. Moreover, the MFI in experiment [5] worked out at 7590 MFI. Further, the Kd was determined as 0.639 nM in experiment [6], 1.57 nM in experiment [7] and 2.37 nM in experiment [8].

B10: 43586p1.2.B8 (scFv, V domains shown)
VH: EVQLLESGGGLVQPGGSLRLSCAASGFTFTSYLMSWVRQAPGKGLEWVSTITWDGDRTYYADSVKGRFTISRDNSKNTLYLQMNSLRVGDTAVYYCAKHWTVFQYGMDVWGQGTTVTVSS
VL: QSVLTQPASASGTPGQRVTITCSGTISNIETKYVSWYQQLPGTAPKLLIYGNHQRPSGVPDRFSGSKSGTSASLAISGLQSEDEADYYCASWENDLKSWVFGGGTKLTVL
As for B10, the “max. signal (% of 22G2)” value in experiment [1] is 130 % of 22G2. For the same molecule, the results for the “Elisa OD450” value in experiment [2], in experiment [3] and in experiment [4] were 2.1 OD450, 1.66 OD450 and 1.46 OD450, respectively. For the same molecule, the MFI in experiment [5] was 9470 MFI. The Kd in experiment [6] came out at 0.125 nM; in experiment [7], 501 nM; in experiment [8] it was 25.3 nM.

B11: 43586p1.2.C12 (scFv, V domains shown)
VH: ESGGGLVQPGGSLRLSCAASGFTFSDYLMTWVRQAPGKGLEWVSTITWDGDRTYYADSVKGRFTISRDNSKNTLYLQMNSLRAEDTAVYYCAKHWTVFQYGMDVWGQGTTVTVSS
VL: B10 VL with A8P, T21S, T31I, A90S
B11: the “max. signal (% of 22G2)” value in experiment [1] was 118 % of 22G2. The “Elisa OD450” value was found to be 2.21 OD450 in experiment [2], 2.03 OD450 in experiment [3] and 1.68 OD450 in experiment [4]. In addition, in experiment [5], the MFI was found to be 11900 MFI. Besides, the figures for the Kd in experiment [6], in experiment [7] and in experiment [8] were 0.192 nM, 68.2 nM and 9.18 nM, respectively.

B12: 43586p1.2.C9 (scFv, V domains shown)
VH: B1 VH with V93I, R98K, L107M, I109V
VL: B1 VL with L8P, V25S, S26I, I31T, H53D, T90V, D94A, R95S
Take B12: the “max. signal (% of 22G2)” value in experiment [1] is 126 % of 22G2. Also, the “Elisa OD450” value in experiment [2] turned out to be 2.17 OD450; in experiment [3], 0.046 OD450; in experiment [4] it was 1.61 OD450. The MFI in experiment [5] was found to be 8330 MFI. Also, the Kd stood at 0.202 nM in experiment [6], 3.66 nM in experiment [7] and 8.69 nM in experiment [8].

Usually Kd stands for the free concentration of one partner at which half of the binding sites on the other are occupied at equilibrium, for simple one-to-one binding.
